Laboratory results reported in patent publication US20260184782A1 (TWIST BIOSCIENCE, published 2026).
Numbering of substitutions follows the chain as printed.

T1: human TIGIT-Fc (human, UniProt Q495A1 22-141, limits assumed)
T1 construct: not shown: Fc; not described
T1 sequence (looked up): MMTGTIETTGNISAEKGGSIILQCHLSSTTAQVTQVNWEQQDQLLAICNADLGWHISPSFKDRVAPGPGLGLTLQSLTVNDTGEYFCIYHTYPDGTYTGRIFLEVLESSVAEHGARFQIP

B1: TIGIT-SC104 (Fc fusion)
VHH: EVQLVESGGGLVQPGGSLRLSCAASGFTFSTYTMGWFRQAPGKEREFVAAISPSGNTYYADSVKGRFTISADNSKNTAYLQMNSLKPEDTAVYYCARWGGITFGGVYPLDYWGQGTLVTVSS
notes: VHH-Fc
B2: TIGIT-SC105 (Fc fusion)
VHH: EVQLVESGGGLVQPGGSLRLSCAASGFAFSRYGMGWFRQAPGKERELVATIGWSGSSTFYADSVKGRFTISADNSKNTAYLQMNSLKPEDTAVYYCARDGGPYYYGLDVWGQGTLVTVSS
notes: VHH-Fc
B3: TIGIT-SC133 (Fc fusion)
VHH: EVQLVESGGGLVQPGGSLRLSCAASGFTLENNMMGWFRQAPGKEREFVAAISASGTLRAYADSVKGRFTISADNSKNTAYLQMNSLKPEDTAVYYCACGRVSGAFIYFDYWGQGTLVTVSS
notes: VHH-Fc
B4: TIGIT-SC102 (Fc fusion)
VHH: EVQLVESGGGLVQPGGSLRLSCAASGSTFSKHHAMGWFRQAPGKEREFVAAIRWSGGNTYYADSVKGRFTISADNSKNTAYLQMNSLKPEDTAVYYCARWYSSSGDYYYMDVWGQGTLVTVSS
notes: VHH-Fc
B5: TIGIT-SC137 (Fc fusion)
VHH: EVQLVESGGGLVQPGGSLRLSCAASGFTLENNMMGWFRQAPGKEREFVAAISRSGTLKAYADSVKGRFTISADNSKNTAYLQMNSLKPEDTAVYYCSLVSGPRWYWGQGTLVTVSS
notes: VHH-Fc
B6: TIGIT-SC92 (Fc fusion)
VHH: EVQLVESGGGLVQPGGSLRLSCAASGSTIENYAMGWFRQAPGKEREFVAAIDWSGGSTYYADSVKGRFTISADNSKNTAYLQMNSLKPEDTAVYYCARWRSIWSGYDDYYYMDVWGQGTLVTVSS
notes: VHH-Fc
B7: TIGIT-SC91 (Fc fusion)
VHH: B6 VHH with S27F, I29F, E30S, D52N, S54N, G55S, G56R
notes: VHH-Fc
B8: TIGIT-SC93 (Fc fusion)
VHH: B6 VHH with G26S, S27R, I29V, E30S, N31S, Y32H, D52S, G56V, S57T
notes: VHH-Fc
B9: TIGIT-SC144 (Fc fusion)
VHH: EVQLVESGGGLVQPGGSLRLSCAASGFTLENNMMGWFRQAPGKEREFVAAISPSGTLRAYADSVKGRFTISADNSKNTAYLQMNSLKPEDTAVYYCAGIHDSGVPLGNWGQGTLVTVSS
notes: VHH-Fc
B10: TIGIT-SC141 (Fc fusion)
VHH: EVQLVESGGGLVQPGGSLRLSCAASGNAFSSSVMGWFRQAPGKEREFVAGIWRSGSLKAYADSVKGRFTISADNSKNTAYLQMNSLRPEDTAVYYCARAYVGMTTVTFDHWGQGTLVTVSS
notes: VHH-Fc
B11: TIGIT-SC87 (Fc fusion)
VHH: EVQLVESGGGLVQPGGSLRLSCAASGSIDTINTMGWFRQAPGKEREFVAAITPSSRTTYYVDSVKGRFTISADNSKNTAYLQMNSLKPEDTAVYYCARWGGVTFGGVYPLEYWGQGTLVTVSS
notes: VHH-Fc
B12: TIGIT-SC96 (Fc fusion)
VHH: EVQLVESGGGLVQPGGSLRLSCAASGMTTIGPMGWFRQAPGKEREFVAAINWSGSSTVYADSVKGRFTISADNSKNTAYLQMNSLKPEDTAVYYCVTYSAYDFRNAWGQGTLVTVSS
notes: VHH-Fc
B13: TIGIT-SC139 (Fc fusion)
VHH: EVQLVESGGGLVQPGGSLRLSCAASGFTLENNMMGWFRQAPGKEREFVAAISRSGTLKAYADSVKGRFTISADNSKNTAYLRMNSLKPEDTAVYYCAGLTSGGAFSYYWGQGTLVTVSS
notes: VHH-Fc
B14: TIGIT-SC94 (Fc fusion)
VHH: EVQLVESGGGLVQPGGSLRLSCAASGSSFSAYAMGWFRQAPGKEREFVSLINWSSGKTIYADSVKGRFTISADNSKNTAYLQMNSLKPEDTAVYYCARVRIFNHVHRPSYYFDYWGQGTLVTVSS
notes: VHH-Fc
B15: TIGIT-SC136 (Fc fusion)
VHH: EVQLVESGGGLVQPGGSLRLSCAASGFTLENNMMGWFRQAPGKEREFVAAISRSGTLKAYADSVKGRFTISADNSKNTAYLQMNSLKPEDTAVYYCARGGELTTFYFGYWGQGTLVTVSS
notes: VHH-Fc
B16: TIGIT-SC150 (Fc fusion)
VHH: EVQLVESGGGLVQPGGSLRLSCAASGFTLENNMMGWFRQAPGKEREFVAAISRSGTLKAYADSVKGRFTISADNSKNTAYLQVNSLKPEDTAVYYCVRVRGYSGYDCDYWGQGTLVTVSS
notes: VHH-Fc
B17: TIGIT-SC140 (Fc fusion)
VHH: EVQLVESGGGLVQPGGSLRLSCAASGNTFSGGFTFDRSWMGWFRQAPGKEREWVASVLRGGYTWYADSVKGRFTISADNSKNTAYLQMNSLKPEDTAVYYCAGDRYYDFWSGPNSGDYWGQGTLVTVSS
notes: VHH-Fc
B18: TIGIT-SC143 (Fc fusion)
VHH: EVQLVESGGGLVQPGGSLRLSCAASGFTLGYYVMGWFRQAPGKEREFVAAISASGTLRAYADSVEGRFTISADNSKNTAYLQMNSLKPEDTAVYYCARAELGYSYGSVDGYWGQGTLVTVSS
notes: VHH-Fc
B19: TIGIT-SC134 (Fc fusion)
VHH: EVQLVESGGGLVQPGGSLRLSCAASGFTLENNMMGWFRQAPGKEREFVAAISASGTLRAYADSVKGRFTISADNSKNTAYLQMNSLKPEDTAVYYCARWYRVNNWSPGYYYYMDVWGQGTLVTVSS
notes: VHH-Fc
B20: TIGIT-SC89 (Fc fusion)
VHH: EVQLVESGGGLVQPGGSLRLSCAASGSMSSINAMGWFRQAPGKEREFVAAINYEGDRTYYADSVKGRFTISADNSKNTAYLQMNSLKPEDTAVYYCARWTRGLVSGTYYYYMDVWGQGTLVTVSS
notes: VHH-Fc
B21: TIGIT-SC90 (Fc fusion)
VHH: EVQLVESGGGLVQPGGSLRLSCAASGDTFSSKAMGWFRQAPGKEREFVAAIRWSVSSTYYADSVKGRFTISADNSKNTAYLQMNSLKPEDTAVYYCARWTRGLVSGTYYYYMDVWGQGTLVTVSS
notes: VHH-Fc
B22: TIGIT-SC142 (Fc fusion)
VHH: EVQLVESGGGLVQPGGSLRLSCAASGFSFDRWAMGWFRQAPGKEREFVAAIGWSGNLKAYADSVKGRFTISADNSKNTAYLQMNSLKPEDTAVYYCASGDGYSMDYFDPWGQGTLVTVSS
notes: VHH-Fc
B23: TIGIT-SC100 (Fc fusion)
VHH: EVQLVESGGGLVQPGGSLRLSCAASGRTLSDRAMGWFRQAPGKEREFVAAITDNGGSTYYADSVKGRFTISADNSKNTAYLQMNSLKPEDTAVYYCARWYSSSGDYYYMDVWGQGTLVTVSS
notes: VHH-Fc
B24: TIGIT-SC101 (Fc fusion)
VHH: B23 VHH with L29F, D31S, R32Y, T52D, D53W, N54S, G55D
notes: VHH-Fc

Target: T1, human TIGIT-Fc
Assay: CD155 competition ELISA, single point; also: test concentration or dose not given here
Method: TIGIT/CD155 inhibition of VHH-Fcs were assessed using an ELISA assay (Table 10B). Briefly, human TIGIT-Fc was coated on a plate & then incubated with VHH-Fcs and human CD155-biotin. Bound CD155-biotin was detected using a streptavidin-HRP conjugate visualized with TMB. Strong inhibitors from the single point screen were titrated to determine EC50 (Table 10C).

Binder | OD (450 nm)
B1 | 0.701 OD
B2 | 0.959 OD
B3 | 0.284 OD
B4 | 0.311 OD
B5 | 0.306 OD
B6 | 0.593 OD
B7 | 0.484 OD
B8 | 0.307 OD
B9 | 0.686 OD
B10 | 0.633 OD
B11 | 0.438 OD
B12 | 0.677 OD
B13 | 0.51 OD
B14 | 0.513 OD
B15 | 0.571 OD
B16 | 0.445 OD
B17 | 0.708 OD
B18 | 0.626 OD
B19 | 0.845 OD
B20 | 0.384 OD
B21 | 0.519 OD
B22 | 0.69 OD
B23 | 0.692 OD
B24 | 0.394 OD
